Results taken from the MegaScale stability set (Tsuboyama et al. 2023).

B1: 1ZHC (parent)
chain: HEFRDEISVLKANNPHFDKIFEKHNQLDDDIKTAEQQNASDAEVSHMKKQKLKLKDEIHSMIIEYREK

Variants of: B1
Assay: folding stability dG (cDNA display proteolysis); higher = more stable
Details: PBS, room temperature

Variant	folding stability dG [kcal/mol]
HEFRDEISVLKANNPHFDKIFEKHNQLDDDIKTALQQNASDAEVSHMKKQKLKLKDEIHSMIIEYREK	1.67
HEFRDEISVLKANNPHFDKIFEKHNQLDDDIKTAIQQNASDAEVSHMKKQKLKLKDEIHSMIIEYREK	1.68
HEFRDEISVLKANNPHFDKIFEKHNQLDDDIKTAHQQNASDAEVSHMKKQKLKLKDEIHSMIIEYREK	-0.572
HEFRDEISVLKANNPHFDKIFEKHNQLDDDIKTAGQQNASDAEVSHMKKQKLKLKDEIHSMIIEYREK	-0.433
HEFRDEISVLKANNPHFDKIFEKHNQLDDDIKTAQQQNASDAEVSHMKKQKLKLKDEIHSMIIEYREK	1.17
HEFRDEISVLKANNPHFDKIFEKHNQLDDDIKTAFQQNASDAEVSHMKKQKLKLKDEIHSMIIEYREK	0.495
HEFRDEISVLKANNPHFDKIFEKHNQLDDDIKTAVQQNASDAEVSHMKKQKLKLKDEIHSMIIEYREK	0.864
HEFRDEISVLKANNPHFDKIFEKHNQLDDDIKTACQQNASDAEVSHMKKQKLKLKDEIHSMIIEYREK	0.531
HEFRDEISVLKANNPHFDKIFEKHNQLDDDIMTAEQQNASDAEVSHMKKQKLKLKDEIHSMIIEYREK	0.333
HEFRDEISVLKANNPHFDKIFEKHNQLDDDIWTAEQQNASDAEVSHMKKQKLKLKDEIHSMIIEYREK	0.34
HEFRDEISVLKANNPHFDKIFEKHNQLDDDIVTAEQQNASDAEVSHMKKQKLKLKDEIHSMIIEYREK	0.251
HEFRDEISVLKANNPHFDKIFEKHNQLDDDIRTAEQQNASDAEVSHMKKQKLKLKDEIHSMIIEYREK	1.18
HEFRDEISVLKANNPHFDKIFEKHNQLDDDINTAEQQNASDAEVSHMKKQKLKLKDEIHSMIIEYREK	0.323
HEFRDEISVLKANNPHFDKIFEKHNQLDDDISTAEQQNASDAEVSHMKKQKLKLKDEIHSMIIEYREK	0.171
HEFRDEISVLKANNPHFDKIFEKHNQLDDDITTAEQQNASDAEVSHMKKQKLKLKDEIHSMIIEYREK	0.187
HEFRDEISVLKANNPHFDKIFEKHNQLDDDIYTAEQQNASDAEVSHMKKQKLKLKDEIHSMIIEYREK	0.157
HEFRDEISVLKANNPHFDKIFEKHNQLDDDIQTAEQQNASDAEVSHMKKQKLKLKDEIHSMIIEYREK	0.87
HEFRDEISVLKANNPHFDKIFEKHNQLDDDILTAEQQNASDAEVSHMKKQKLKLKDEIHSMIIEYREK	0.566
HEFRDEISVLKANNPHFDKIFEKHNQLDDDIKTAEQANASDAEVSHMKKQKLKLKDEIHSMIIEYREK	1.07
HEFRDEISVLKANNPHFDKIFEKHNQLDDDIKTAEQDNASDAEVSHMKKQKLKLKDEIHSMIIEYREK	0.411

Variant	folding stability dG [kcal/mol]
HEFRDEISVLKANNPHFDKIFEKHNQLDDDIKTAEQCNASDAEVSHMKKQKLKLKDEIHSMIIEYREK	0.94
HEFRDEISVLKANNPHFDKIFEKHNQLDDDIKTAEQENASDAEVSHMKKQKLKLKDEIHSMIIEYREK	0.422
HEFRDEISVLKANNPHFDKIFEKHNQLDDDIKTAETQNASDAEVSHMKKQKLKLKDEIHSMIIEYREK	0.782
HEFRDEISVLKANNPHFDKIFEKHNQLDDDIKTAEWQNASDAEVSHMKKQKLKLKDEIHSMIIEYREK	0.281
HEFRDEISVLKANNPHFDKIFEKHNQLDDDIKTAEDQNASDAEVSHMKKQKLKLKDEIHSMIIEYREK	0.576
HEFRDEISVLKANNPHFDKIFEKHNQLDDDIKTAEAQNASDAEVSHMKKQKLKLKDEIHSMIIEYREK	1.01
HEFRDEISVLKANNPHFDKIFEKHNQLDDDIKTAEIQNASDAEVSHMKKQKLKLKDEIHSMIIEYREK	0.263
HEFRDEISVLKANNPHFDKIFEKHNQLDDDIKTAEYQNASDAEVSHMKKQKLKLKDEIHSMIIEYREK	0.632
HEFRDEISVLKANNPHFDKIFEKHNQLDDDIKTAEGQNASDAEVSHMKKQKLKLKDEIHSMIIEYREK	0.883
HEFRDEISVLKANNPHFDKIFEKHNQLDDDIKTAECQNASDAEVSHMKKQKLKLKDEIHSMIIEYREK	0.694
HEFRDEISVLKANNPHFDKIFEKHNQLDDDIKTAESQNASDAEVSHMKKQKLKLKDEIHSMIIEYREK	1.17
HEFRDEISVLKANNPHFDKIFEKHNQLDDDIKTAERQNASDAEVSHMKKQKLKLKDEIHSMIIEYREK	1.25
HEFRDEISVLKANNPHFDKIFEKHNQLDDDIKTAEEQNASDAEVSHMKKQKLKLKDEIHSMIIEYREK	0.904
HEFRDEISVLKANNPHFDKIFEKHNQLDDDIKTAEFQNASDAEVSHMKKQKLKLKDEIHSMIIEYREK	0.822
HEFRDEISVLKANNPHFDKIFEKHNQLDDDIKTAENQNASDAEVSHMKKQKLKLKDEIHSMIIEYREK	0.652
HEFRDEISVLKANNPHFDKIFEKHNQLDDDIKTAEKQNASDAEVSHMKKQKLKLKDEIHSMIIEYREK	0.963
HEFRDEISVLKANNPHFDKIFEKHNQLDDDIKTAEMQNASDAEVSHMKKQKLKLKDEIHSMIIEYREK	1.31
HEFRDEISVLKANNPHFDKIFEKHNQLDDDIKTAEHQNASDAEVSHMKKQKLKLKDEIHSMIIEYREK	-0.003
HEFRDEISVLKANNPHFDKIFEKHNQLDDDIKTAEVQNASDAEVSHMKKQKLKLKDEIHSMIIEYREK	0.511
HEFRDEISVLKANNPHFDKIFEKHNQLDDDIKTAELQNASDAEVSHMKKQKLKLKDEIHSMIIEYREK	1.02
